{"source": "patent US20260242478A1", "about": "(published 2026)", "binders": {"B1": {"name": "Phage-1230 (peptide)", "peptide": "YCAGHLDVYMSKCL", "modifications": "cysteine pairing not given here; also: displayed on phage by fusion to pIII, linker and pIII sequence not given here", "notes": "Tested as clonal phage supernatant"}, "B2": {"name": "Phage-1223 (peptide)", "peptide": "YCDGHTGMYISKCL", "modifications": "cysteine pairing not given here; also: displayed on phage by fusion to pIII, linker and pIII sequence not given here", "notes": "as for B1"}, "B3": {"name": "Phage-1231 (peptide)", "peptide": "YCAGHTPEYLDKCL", "modifications": "cysteine pairing not given here; also: displayed on phage by fusion to pIII, linker and pIII sequence not given here", "notes": "as for B1"}, "B4": {"name": "Phage-1225 (peptide)", "peptide": "YCAGHAAEYMWKCL", "modifications": "cysteine pairing not given here; also: displayed on phage by fusion to pIII, linker and pIII sequence not given here", "notes": "as for B1"}, "B5": {"name": "Phage-1229 (peptide)", "peptide": "YCDGHLPEYMLKCL", "modifications": "cysteine pairing not given here; also: displayed on phage by fusion to pIII, linker and pIII sequence not given here", "notes": "as for B1"}, "B6": {"name": "Phage-1222 (peptide)", "peptide": "YCFGHFPEYMAKCL", "modifications": "cysteine pairing not given here; also: displayed on phage by fusion to pIII, linker and pIII sequence not given here", "notes": "as for B1"}, "B7": {"name": "Phage-1226 (peptide)", "peptide": "YCQGHFPQYMAKCL", "modifications": "cysteine pairing not given here; also: displayed on phage by fusion to pIII, linker and pIII sequence not given here", "notes": "as for B1"}, "B8": {"name": "Phage-1228 (peptide)", "peptide": "YCDGHSKEYMSKCL", "modifications": "cysteine pairing not given here; also: displayed on phage by fusion to pIII, linker and pIII sequence not given here", "notes": "as for B1"}, "B9": {"name": "Phage-1227 (peptide)", "peptide": "YCEGHVPEYLVKCL", "modifications": "cysteine pairing not given here; also: displayed on phage by fusion to pIII, linker and pIII sequence not given here", "notes": "as for B1"}, "B10": {"name": "Phage-1233 (peptide)", "peptide": "YCDGHEERYMAKCL", "modifications": "cysteine pairing not given here; also: displayed on phage by fusion to pIII, linker and pIII sequence not given here", "notes": "as for B1"}, "B11": {"name": "Phage-1224 (peptide)", "peptide": "YCSGHSWAYIGKCL", "modifications": "cysteine pairing not given here; also: displayed on phage by fusion to pIII, linker and pIII sequence not given here", "notes": "as for B1"}, "B12": {"name": "Phage-1221 (peptide)", "peptide": "YCEGHSAIYIAKCM", "modifications": "cysteine pairing not given here; also: displayed on phage by fusion to pIII, linker and pIII sequence not given here", "notes": "as for B1"}, "B13": {"name": "Phage-1232 (peptide)", "peptide": "YCEGHDIRYMMKCL", "modifications": "cysteine pairing not given here; also: displayed on phage by fusion to pIII, linker and pIII sequence not given here", "notes": "as for B1"}, "B14": {"name": "Phage-1209 (peptide)", "peptide": "YCAGHSSEYLQKCL", "notes": "tested as crude clonal phage supernatant"}, "B15": {"name": "Phage-1217 (peptide)", "peptide": "YCEGHRPEYMANCL", "notes": "as for B14"}, "B16": {"name": "Phage-1218 (peptide)", "peptide": "YCEGHIEPYMQKCL", "notes": "as for B14"}, "B17": {"name": "Phage-1220 (peptide)", "peptide": "YCDGHVGAYMWKCL", "notes": "as for B14"}, "B18": {"name": "Phage-1208 (peptide)", "peptide": "YCDGHLAEYIQKCL", "notes": "as for B14"}, "B19": {"name": "Phage-1216 (peptide)", "peptide": "YCDGHLEVYMSKCL", "notes": "as for B14"}, "B20": {"name": "Phage-1215 (peptide)", "peptide": "YCEGHSWIYIAKCL", "notes": "as for B14"}, "B21": {"name": "Phage-1210 (peptide)", "peptide": "YCAGHSQVYMWKCL", "notes": "as for B14"}, "B22": {"name": "Phage-1212 (peptide)", "peptide": "YCFGHAPEYLLKCL", "notes": "as for B14"}, "B23": {"name": "Phage-1211 (peptide)", "peptide": "YCEGHIEQYMRKCL", "notes": "as for B14"}, "B24": {"name": "Phage-1219 (peptide)", "peptide": "YCDGHKPEYMDKCL", "notes": "as for B14"}, "B25": {"name": "Phage-1213 (peptide)", "peptide": "YCEGHLREYMLKCL", "notes": "as for B14"}, "B26": {"name": "Phage-1214 (peptide)", "peptide": "YCEGHSSVYLWKCL", "notes": "as for B14"}}, "note": "Where no end group is shown, it is not given here."}
{"target": "T1, Anti-CD28 Fab (SEQ ID NOs: 696, 697)", "T1 construct": "In the phage ELISA the Fab was biotinylated and captured on neutravidin coated plates", "assay": "phage binding ELISA; clonal phage on plate-captured biotinylated anti-CD28 Fab, anti-M13 HRP detection", "T1 sequence (VH, as listed by the source, chain 1 of 2)": "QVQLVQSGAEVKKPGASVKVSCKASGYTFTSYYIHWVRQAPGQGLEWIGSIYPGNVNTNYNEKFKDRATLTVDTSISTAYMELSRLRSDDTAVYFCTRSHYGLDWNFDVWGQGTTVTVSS", "T1 sequence (VL, as listed by the source, chain 2 of 2)": "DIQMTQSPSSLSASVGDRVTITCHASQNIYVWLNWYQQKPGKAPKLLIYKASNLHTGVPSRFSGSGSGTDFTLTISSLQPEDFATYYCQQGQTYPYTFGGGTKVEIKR", "method": "(§1) After panning, phage infected bacteria were plated out and colonies picked into 96 well blocks. Clonal phage was then amplified and separated from bacterial cells via centrifugation.\n(§2) Clonal phage were harvested as crude supematants and screened via standard ELISAs. […] Prior to the addition of clonal phage, wells were incubated with blocking buffer and CD28 antigen or blocking buffer alone. Without washing or aspirating, clonal phage supematants were then added to the wells and incubated for a short time. Wells were then washed followed by detection of bound phage using a horse radish conjugated anti-M13 antibody. Clonal phage of interest were then sent for sequence analysis."}
{"binder": "B1", "Anti-CD28 Fab signal (phage binding ELISA)": 0.96}
{"binder": "B2", "Anti-CD28 Fab signal (phage binding ELISA)": 0.98}
{"binder": "B3", "Anti-CD28 Fab signal (phage binding ELISA)": 0.95}
{"binder": "B4", "Anti-CD28 Fab signal (phage binding ELISA)": 0.97}
{"binder": "B5", "Anti-CD28 Fab signal (phage binding ELISA)": 0.96}
{"binder": "B6", "Anti-CD28 Fab signal (phage binding ELISA)": 0.98}
{"binder": "B7", "Anti-CD28 Fab signal (phage binding ELISA)": 0.97}
{"binder": "B8", "Anti-CD28 Fab signal (phage binding ELISA)": 0.96}
{"binder": "B9", "Anti-CD28 Fab signal (phage binding ELISA)": 0.96}
{"binder": "B10", "Anti-CD28 Fab signal (phage binding ELISA)": 0.94}
{"binder": "B11", "Anti-CD28 Fab signal (phage binding ELISA)": 0.98}
{"binder": "B12", "Anti-CD28 Fab signal (phage binding ELISA)": 0.98}
{"binder": "B13", "Anti-CD28 Fab signal (phage binding ELISA)": 0.95}
{"target": "T2, Anti-CD28 Fab (SEQ ID NOs: 696, 697)", "T2 construct": "Biotinylated and captured on neutravidin coated plates in the phage ELISA", "assay": "phage binding ELISA; biotinylated anti-CD28 Fab on neutravidin plate, bound phage detected with anti-M13 HRP;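 note: crude supernatants of clonal phage screened, wells pretreated with blocking buffer with or without CD28 antigen before brief phage incubation, washed, then bound phage detected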", "T2 sequence (VH, as listed by the source, chain 1 of 2)": "as the sequence (VH, as listed by the source, chain 1 of 2) above", "T2 sequence (VL, as listed by the source, chain 2 of 2)": "as the sequence (VL, as listed by the source, chain 2 of 2) above", "method": "as §1, §2"}
{"binder": "B14", "Anti-CD28 Fab signal": 1.03}
{"binder": "B15", "Anti-CD28 Fab signal": 1}
{"binder": "B16", "Anti-CD28 Fab signal": 0.99}
{"binder": "B17", "Anti-CD28 Fab signal": 0.99}
{"binder": "B18", "Anti-CD28 Fab signal": 1.04}
{"binder": "B19", "Anti-CD28 Fab signal": 1}
{"binder": "B20", "Anti-CD28 Fab signal": 1}
{"binder": "B21", "Anti-CD28 Fab signal": 1.02}
{"binder": "B22", "Anti-CD28 Fab signal": 1.01}
{"binder": "B23", "Anti-CD28 Fab signal": 1.01}
{"binder": "B24", "Anti-CD28 Fab signal": 0.99}
{"binder": "B25", "Anti-CD28 Fab signal": 1.01}
{"binder": "B26", "Anti-CD28 Fab signal": 1}
{"target": "T3, Anti-CD28 Fab (SEQ ID NOs: 696, 697)", "T3 construct": "Biotinylated and captured on neutravidin coated plates in the phage ELISA", "assay": "phage ELISA; Fab-coated wells first incubated with CD28 antigen (competitor), then clonal phage, anti-M13 HRP", "T3 sequence (VH, as listed by the source, chain 1 of 2)": "as the sequence (VH, as listed by the source, chain 1 of 2) above", "T3 sequence (VL, as listed by the source, chain 2 of 2)": "as the sequence (VL, as listed by the source, chain 2 of 2) above", "method": "as §1, §2"}
{"binder": "YCAGHSAQYMWKCL", "note": "[Phage-1240]", "Anti-CD28 Fab signal in the presence of CD28 (phage binding ELISA)": 0.07}
{"binder": "YCDGHSAEYLGKCL", "note": "[Phage-1242]", "Anti-CD28 Fab signal in the presence of CD28 (phage binding ELISA)": 0.07}
{"binder": "YCEGHTQAYLAKCL", "note": "[Phage-1239]", "Anti-CD28 Fab signal in the presence of CD28 (phage binding ELISA)": 0.1}
{"binder": "YCEGHAHEYMEKCV", "note": "[Phage-1237]", "Anti-CD28 Fab signal in the presence of CD28 (phage binding ELISA)": 0.07}
{"binder": "YCVGHSPEYIWKCL", "note": "[Phage-1243]", "Anti-CD28 Fab signal in the presence of CD28 (phage binding ELISA)": 0.06}
{"binder": "YCAGHAEIYMQKCL", "note": "[Phage-1236]", "Anti-CD28 Fab signal in the presence of CD28 (phage binding ELISA)": 0.05}
{"binder": "YCDGHHAEYMWKCL", "note": "[Phage-1238]", "Anti-CD28 Fab signal in the presence of CD28 (phage binding ELISA)": 0.06}
{"binder": "YCDGHIPQYVEKCL", "note": "[Phage-1235]", "Anti-CD28 Fab signal in the presence of CD28 (phage binding ELISA)": 0.08}
{"binder": "YCSGHVPEYMEKCL", "note": "[Phage-1234]", "Anti-CD28 Fab signal in the presence of CD28 (phage binding ELISA)": 0.06}
{"binder": "YCDGHSFEYMAKCL", "note": "[Phage-1241]", "Anti-CD28 Fab signal in the presence of CD28 (phage binding ELISA)": 0.06}
{"target": "T2, Anti-CD28 Fab (SEQ ID NOs: 696, 697)", "assay": "phage binding ELISA on captured anti-CD28 Fab; competitor: CD28 antigen at saturating concentration", "method": "as §1, §2"}
{"binder": "B14", "Anti-CD28 Fab signal in the presence of CD28": 0.09}
{"binder": "B15", "Anti-CD28 Fab signal in the presence of CD28": 0.06}
{"binder": "B16", "Anti-CD28 Fab signal in the presence of CD28": 0.06}
{"binder": "B17", "Anti-CD28 Fab signal in the presence of CD28": 0.06}
{"binder": "B18", "Anti-CD28 Fab signal in the presence of CD28": 0.08}
{"binder": "B19", "Anti-CD28 Fab signal in the presence of CD28": 0.09}
{"binder": "B20", "Anti-CD28 Fab signal in the presence of CD28": 0.07}
{"binder": "B21", "Anti-CD28 Fab signal in the presence of CD28": 0.06}
{"binder": "B22", "Anti-CD28 Fab signal in the presence of CD28": 0.08}
{"binder": "B23", "Anti-CD28 Fab signal in the presence of CD28": 0.06}
{"binder": "B24", "Anti-CD28 Fab signal in the presence of CD28": 0.07}
{"binder": "B25", "Anti-CD28 Fab signal in the presence of CD28": 0.07}
{"binder": "B26", "Anti-CD28 Fab signal in the presence of CD28": 0.05}
{"target": "T3, Anti-CD28 Fab (SEQ ID NOs: 696, 697)", "assay": "phage ELISA; biotinylated anti-CD28 Fab on neutravidin plate, clonal phage supernatant, anti-M13 HRP", "method": "as §1, §2"}
{"binder": "YCAGHSAQYMWKCL", "note": "[Phage-1240]", "Anti-CD28 Fab signal (phage binding ELISA)": 0.92}
{"binder": "YCDGHSAEYLGKCL", "note": "[Phage-1242]", "Anti-CD28 Fab signal (phage binding ELISA)": 0.92}
{"binder": "YCEGHTQAYLAKCL", "note": "[Phage-1239]", "Anti-CD28 Fab signal (phage binding ELISA)": 0.93}
{"binder": "YCEGHAHEYMEKCV", "note": "[Phage-1237]", "Anti-CD28 Fab signal (phage binding ELISA)": 0.93}
{"binder": "YCVGHSPEYIWKCL", "note": "[Phage-1243]", "Anti-CD28 Fab signal (phage binding ELISA)": 0.92}
{"binder": "YCAGHAEIYMQKCL", "note": "[Phage-1236]", "Anti-CD28 Fab signal (phage binding ELISA)": 0.93}
{"binder": "YCDGHHAEYMWKCL", "note": "[Phage-1238]", "Anti-CD28 Fab signal (phage binding ELISA)": 0.93}
{"binder": "YCDGHIPQYVEKCL", "note": "[Phage-1235]", "Anti-CD28 Fab signal (phage binding ELISA)": 0.94}
{"binder": "YCSGHVPEYMEKCL", "note": "[Phage-1234]", "Anti-CD28 Fab signal (phage binding ELISA)": 0.94}
{"binder": "YCDGHSFEYMAKCL", "note": "[Phage-1241]", "Anti-CD28 Fab signal (phage binding ELISA)": 0.92}
{"target": "T1, Anti-CD28 Fab (SEQ ID NOs: 696, 697)", "assay": "phage binding ELISA on plate-captured anti-CD28 Fab pre-incubated with CD28 antigen as competitor", "method": "as §1, §2"}
{"binder": "B1", "Anti-CD28 Fab signal in the presence of CD28 (phage binding ELISA)": 0.09}
{"binder": "B2", "Anti-CD28 Fab signal in the presence of CD28 (phage binding ELISA)": 0.06}
{"binder": "B3", "Anti-CD28 Fab signal in the presence of CD28 (phage binding ELISA)": 0.06}
{"binder": "B4", "Anti-CD28 Fab signal in the presence of CD28 (phage binding ELISA)": 0.06}
{"binder": "B5", "Anti-CD28 Fab signal in the presence of CD28 (phage binding ELISA)": 0.09}
{"binder": "B6", "Anti-CD28 Fab signal in the presence of CD28 (phage binding ELISA)": 0.07}
{"binder": "B7", "Anti-CD28 Fab signal in the presence of CD28 (phage binding ELISA)": 0.07}
{"binder": "B8", "Anti-CD28 Fab signal in the presence of CD28 (phage binding ELISA)": 0.07}
{"binder": "B9", "Anti-CD28 Fab signal in the presence of CD28 (phage binding ELISA)": 0.06}
{"binder": "B10", "Anti-CD28 Fab signal in the presence of CD28 (phage binding ELISA)": 0.06}
{"binder": "B11", "Anti-CD28 Fab signal in the presence of CD28 (phage binding ELISA)": 0.07}
{"binder": "B12", "Anti-CD28 Fab signal in the presence of CD28 (phage binding ELISA)": 0.11}
{"binder": "B13", "Anti-CD28 Fab signal in the presence of CD28 (phage binding ELISA)": 0.08}
